Test results reported in paper PMC2921665.
Read-outs that look alike come from different tables or passages of the source.

How the values were obtained:
LexA (EMSA protein) [1] = biological target: T1, LexA (EMSA protein) (Escherichia coli, UniProt P0A7C2 1-202, K156A); test: EMSA
LexA (EMSA protein) [2] = biological target: T1, LexA (EMSA protein); test: EMSA; remark: listed apart in the source

Binder	Kd (LexA (EMSA protein) [1])	Kd (LexA (EMSA protein) [2])
GC-repeat spacer (dsDNA) DNA 1: GATGCCTGCGGATACTGTGCGCGCGCACAGTATCAATTCTGGCT DNA 2: AGCCAGAATTGATACTGTGCGCGCGCACAGTATCCGCAGGCATC	~100 nM	
+1 spacer (dsDNA) DNA 1: GATGCCTGCGGATACTGTATATATAATACAGTATCAATTCTGGCT DNA 2: AGCCAGAATTGATACTGTATTATATATACAGTATCCGCAGGCATC	~200 nM	
RecA SOS box (dsDNA) DNA 1: GATGCCTGCGGATACTGTATGATCATACAGTATCAATTCTGGCT DNA 2: AGCCAGAATTGATACTGTATGATCATACAGTATCCGCAGGCATC		1.67 ± 0.26 nM
TGC spacer (dsDNA) DNA 1: GATGCCTGCGGATACTGTACGCGCGTACAGTATCAATTCTGGCT DNA 2: AGCCAGAATTGATACTGTACGCGCGTACAGTATCCGCAGGCATC		2.4 ± 0.5 nM
AT-GC spacer (dsDNA) DNA 1: GATGCCTGCGGATACTGTATGCGCATACAGTATCAATTCTGGCT DNA 2: AGCCAGAATTGATACTGTATGCGCATACAGTATCCGCAGGCATC		1.59 ± 0.3 nM
AT-repeat spacer (dsDNA) DNA 1: GATGCCTGCGGATACTGTATATATATACAGTATCAATTCTGGCT DNA 2: AGCCAGAATTGATACTGTATATATATACAGTATCCGCAGGCATC		0.8 ± 0.27 nM
A-tract spacer (dsDNA) DNA 1: GATGCCTGCGGATACTGTAAAAAAAAACAGTATCAATTCTGGCT DNA 2: AGCCAGAATTGATACTGTTTTTTTTTACAGTATCCGCAGGCATC		5.64 ± 0.78 nM
-1 spacer (dsDNA) DNA 1: GATGCCTGCGGATACTGTATATATTACAGTATCAATTCTGGCT DNA 2: AGCCAGAATTGATACTGTAATATATACAGTATCCGCAGGCATC	~250 nM	
